Assay results published in FireProtDB (doi:10.1093/protein/gzw068).

B1: C153H, Q93D82 (parent)
chain: MSTAIVTNVKHFGGMGSALRLSEAGHTVACHDESFKQKDELEAFAETYPQLKPMSEQEPAELIEAVTSAYGQVDVLVSNDIFAPEFQPIDKYAVEDYRGAVEALQIRPFALVNAVASQMKKRKSGHIIFITSATPFGPWKELSTYTSARAGACTLANALSKELGEYNIPVFAIGPNYLHSEDSPYFYPTEPWKTNPEHVAHVKKVTALQRLGTQKELGELVAFLASGSCDYLTGQVFWLAGGFPMIERWPGMPE

Variants of: B1
Settings: Rhizobium radiobacter; pH 7.7; Thermal; CD; Phosphate 5mM; structure 1PWX; whole UniProt chain shown

Q: Which results are given for MSTAIVTNVKHFGGMGSALRLSEAGHTVACHDESFKQKDELEAFAETYPQLKPMSEQEPAELIEAVTSAYGQVDVLVSNDIFAPEFQPIDKYAVEDYRGAVEALQIRPFALVNAVASQMKKRKSGHIIFITSATPFGPWKELSTYTSARAGAHTLANALSKELGEYNIPVFAIGPNYLHSEDSPYFYPTEPWKTNPEHVAHVKKVTALQRLGTQKELGELVAFLASGSCDYLTGQVFWLAGGFPMIERWPGMPE [C153H]?
A: Tm: 53.5 °C; change of melting temperature, mutant - wild type (higher = more stable): -11.5 °C

Q: Which results are given for MSTAIVTNVKHFGGMGSALRLSEAGHTVACHDESFKQKDELEAFAETYPQLKPMSEQEPAELIEAVTSAYGQVDVLVSNDIFAPEFQPIDKYAVEDYRGAVEQLQIRPFALVNAVASQMKKRKSGHIIFITSATPFGPWKELSTYTSARAGACTLANALSKELGEYNIPVFAIGPNYLHSEDSPYFYPTEPWKTNPEHVAHVKKVTALQRLGTQKELGELVAFLASGSCDYLTGQVFWLAGGFPMIERWPGMPE [A103Q]?
A: Tm: 61 °C; change of melting temperature, mutant - wild type (higher = more stable): -4 °C

Q: Which Tm does the source give for MSTAIVTNVKHFGGMGSALRLSEAGHTVACHDESFKQKDELEAFAETYPQLKPMSEQQPAELIEAVTSAYGQVDVLVSNDIFAPEFQPIDKYAVEDYRGAVEALQIRPFALVNAVASQMKKRKSGHIIFITSATPFGPWKELSTYTSARAGACTLANALSKELGEYNIPVFAIGPNYLHSEDSPYFYPTEPWKTNPEHVAHVKKVTALQRLGTQKELGELVAFLASGSCDYLTGQVFWLAGGFPMIERWPGMPE [E58Q] here?
A: 67.5 °C

Q: What about the “change of melting temperature, mutant - wild type (higher = more stable)” value (“change of melting temperature, mutant” below) of the same variant?
A: 2.5 °C

Q: Which Tm does the source give for MSTAIVTNVKHFGGMGSALRLSEAGHTVACHDESFKQKDELEAFAETYPQLKPFSEQEPAELIEAVTSAYGQVDVLVSNDIFAPEFQPIDKYAVEDYRGAVEALQIRPFALVNAVASQMKKRKSGHIIFITSATPFGPWKELSTYTSARAGACTLANALSKELGEYNIPVFAIGPNYLHSEDSPYFYPTEPWKTNPEHVAHVKKVTALQRLGTQKELGELVAFLASGSCDYLTGQVFWLAGGFPMIERWPGMPE [M54F] here?
A: 63.5 °C

Q: What about the “change of melting temperature, mutant” value of the same variant?
A: -1.5 °C

Q: What does the source list for MSTAIVTNVKHFGGMGSALRLSEAGHTVACHDESFKQKDELEAFAETYPQLKPMSEQEPAELIEAVTSAYGQVDVLVSNDIFAPEFLPIDKYAVEDYRGAVEALQIRPFALVNAVASQMKKRKSGHIIFITSATPFGPWKELSTYTSARAGACTLANALSKELGEYNIPVFAIGPNYLHSEDSPYFYPTEPWKTNPEHVAHVKKVTALQRLGTQKELGELVAFLASGSCDYLTGQVFWLAGGFPMIERWPGMPE [Q87L]?
A: Tm: 62.5 °C; change of melting temperature, mutant - wild type (higher = more stable): -2.5 °C

Q: What does the source list for MSTAIVTNVKHFGGMGSALRLSEAGHTVACHDESFKQKDELEAFAETYPQLKPMSEQEPAELIEAVTSAYGQVDVLVSNDIFAPEFQPIDKYAVEDYRDAVEALQIRPFALVNAVASQMKKRKSGHIIFITSATPFGPWKELSTYTSARAGACTLANALSKELGEYNIPVFAIGPNYLHSEDSPYFYPTEPWKTNPEHVAHVKKVTALQRLGTQKELGELVAFLASGSCDYLTGQVFWLAGGFPMIERWPGMPE [G99D]?
A: Tm: 65 °C; change of melting temperature, mutant - wild type (higher = more stable): 0 °C

Q: Which Tm does the source give for MSTAIVTNVKHFGGMGSALRLSEAGHTVACHDESFKQKDELEAFAETYPQLKPMSEQEPAELIEAVTSAYGQVDVLVSNDIFAPEFQPIDKYAVEDYRGAVEALQIRPFALVNAVASQMKKRHSGHIIFITSATPFGPWKELSTYTSARAGACTLANALSKELGEYNIPVFAIGPNYLHSEDSPYFYPTEPWKTNPEHVAHVKKVTALQRLGTQKELGELVAFLASGSCDYLTGQVFWLAGGFPMIERWPGMPE [K123H] here?
A: 65.5 °C

Q: And the “change of melting temperature, mutant” value?
A: 0.5 °C

Q: With MSTAIVFNVKHFGGMGSALRLSEAGHTVACHDESFKQKDELEAFAETYPQLKPMSEQEPAELIEAVTSAYGQVDVLVSNDIFAPEFQPIDKYAVEDYRGAVEALQIRPFALVNAVASQMKKRKSGHIIFITSATPFGPWKELSTYTSARAGACTLANALSKELGEYNIPVFAIGPNYLHSEDSPYFYPTEPWKTNPEHVAHVKKVTALQRLGTQKELGELVAFLASGSCDYLTGQVFWLAGGFPMIERWPGMPE [T7F] as the variant, how does the Tm read?
A: 65 °C

Q: And the “change of melting temperature, mutant” value?
A: 0 °C

Q: Which Tm does the source give for MSTAIVTNVKHFGGMGSALRLSEAGHTVACHDESFKQKDELEAFAETYPQLKPMSEQEPAELIEAVTSAYGQVDVLVSNDIFAPEFQPIDKYAVEDYRGAVEALQIRPFALVNAVASQMKKRKSGHIIFITSATPFGPWKELSTYTSARAGACILANALSKELGEYNIPVFAIGPNYLHSEDSPYFYPTEPWKTNPEHVAHVKKVTALQRLGTQKELGELVAFLASGSCDYLTGQVFWLAGGFPMIERWPGMPE [T154I] here?
A: 62 °C

Q: What about the “change of melting temperature, mutant” value of the same variant?
A: -3 °C

Q: For MSTAIVTNVKHFGGMGSALRLSEAGHTVACHDESFKQKDELEAFAETYPQLKPMSEQEPKELIEAVTSAYGQVDVLVSNDIFAPEFQPIDKYAVEDYRGAVEALQIRPFALVNAVASQMKKRKSGHIIFITSATPFGPWKELSTYTSARAGACTLANALSKELGEYNIPVFAIGPNYLHSEDSPYFYPTEPWKTNPEHVAHVKKVTALQRLGTQKELGELVAFLASGSCDYLTGQVFWLAGGFPMIERWPGMPE [A60K], which Tm is on record?
A: 61 °C

Q: What about the “change of melting temperature, mutant” value of the same variant?
A: -4 °C

Q: What does the source list for MSTAIVTNVKHFGGMGSALRLSEAGHTVAVHDESFKQKDELEAFAETYPQLKPMSEQEPAELIEAVTSAYGQVDVLVSNDIFAPEFQPIDKYAVEDYRGAVEALQIRPFALVNAVASQMKKRKSGHIIFITSATPFGPWKELSTYTSARAGACTLANALSKELGEYNIPVFAIGPNYLHSEDSPYFYPTEPWKTNPEHVAHVKKVTALQRLGTQKELGELVAFLASGSCDYLTGQVFWLAGGFPMIERWPGMPE [C30V]?
A: Tm: 64 °C; change of melting temperature, mutant - wild type (higher = more stable): -1 °C

Q: What does the source list for MSTAIVTNVKHFGGMGSALRLSEAGHTVACHDESFKQKDELEAFAETYPQLKPMSEQEPAELIKAVTSAYGQVDVLVSNDIFAPEFQPIDKYAVEDYRGAVEALQIRPFALVNAVASQMKKRKSGHIIFITSATPFGPWKELSTYTSARAGACTLANALSKELGEYNIPVFAIGPNYLHSEDSPYFYPTEPWKTNPEHVAHVKKVTALQRLGTQKELGELVAFLASGSCDYLTGQVFWLAGGFPMIERWPGMPE [E64K]?
A: Tm: 65 °C; change of melting temperature, mutant - wild type (higher = more stable): 0 °C
